Test [1] deals with T1, corticotropin-releasing hormone (CRH) peptide (human and mouse (same sequence), not fully specified).
T1 peptide: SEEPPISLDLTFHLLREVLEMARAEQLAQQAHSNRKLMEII
The test can be described thus: cell-based or functional assay.

Test [2] addresses T2, corticotropin-releasing hormone (CRH) peptide (human and mouse, not fully specified).
T2 peptide: T1 peptide
The test can be described thus: cell-based or functional assay.

The target in test [3] is T3, hUCN1 (CT Biotin) (human, UniProt P55089 83-122, biotin at the C-terminus).
T3 construct: also called human UCN1 (CT biotin)
T3 peptide (looked up): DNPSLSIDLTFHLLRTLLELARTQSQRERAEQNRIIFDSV
As to the kind of experiment: ELISA, biotin peptide on streptavidin plate. The method, then:
(§1) Streptavidin (Thermo, Cat: 21125) was diluted in PBS to a concentration of 2 μg/ml. 100 μl of diluted streptavidin was added per well to ELISA microplates, and the plates were incubated overnight at 4° C. […] 100 μL of 3,3′,5,5′-tetramethylbenzidine (TMB) substrate (Biopanda, Cat: TMB-S-003) was added, and the plates were incubated at room temperature for 15 minutes. 100 μL of ELISA stopping solution (Solarbio, Cat #: C1058) was added to terminate the reaction, and the optical density at 450 nm (OD450 nm) was determined by an ELISA plate reader (Molecular Devices, Spectra max 384 plus).

Test [4] deals with T4, CRH (NT Biotin) (human and mouse, not fully specified; biotin at the N-terminus).
T4 peptide: T1 peptide
The test can be described thus: ELISA, biotin peptide on streptavidin plate. As for the experimental part:
as §1

Test [5] has as its target T5, CRH (CT Biotin) (human and mouse, C-terminal K-Biotin).
T5 construct: also called Peptide 4 (CRH-Biotin)
T5 peptide: T1 peptide
As to the kind of experiment: ELISA, biotin peptide on streptavidin plate. The method, then: as §1

Test [6] addresses T6, hUCN1 (NT Biotin) (human, UniProt P55089 83-122, biotin at the N-terminus).
T6 construct: also called human UCN1 (NT biotin)
T6 peptide (looked up): T3 peptide (looked up)
The test can be described thus: ELISA, biotin peptide on streptavidin plate. The method, then:
as §1

The target in test [7] is T7, human UCN3 peptide (human, UniProt Q969E3 120-157, not fully specified; biotin at N- or C-terminus in the ELISA).
T7 construct: also called hUCN3; hUCN3 (NT Biotin)
T7 peptide (looked up): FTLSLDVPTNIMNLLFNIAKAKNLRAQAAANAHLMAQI
As to the kind of experiment: ELISA, biotinylated hUCN3 on streptavidin plates. As for the experimental part:
(§2) Streptavidin (Thermo, Cat: 21125) was diluted in PBS with a concentration of 2 μg/mL. 100 μL of diluted streptavidin was added per well to ELISA microplates, and the plates were incubated overnight at 4° C. Plates were blocked with ELISA blocking solution (containing 2% w/v BSA, 0.05% (v/v) Tween-20, pH 7.4 PBS buffer) at 37° C. for 1 hour, and then incubated with either 1 μg/mL hUCN1 (NT Biotin), hUCN1 (CT Biotin), hUCN2 (NT Biotin), hUCN2 (CT Biotin), hUCN3 (NT Biotin), or hUCN3 (CT Biotin) for 1 hour at 37° C. […] 100 μl of TMB Substrate (Biopanda, Cat: TMB-S-003) was added, and the plates were incubated at room temperature for 15 minutes. 100 μL of ELISA stopping solution (Solarbio, Cat #: C1058) was then added to terminate the reaction, and the OD450 nm was determined by an ELISA plate reader (Molecular Devices, Spectra max 384 plus).

Test [8] has as its target T8, human UCN2 peptide (human, UniProt Q96RP3 72-109, limits assumed, not fully specified; biotin at N- or C-terminus in the ELISA).
T8 construct: also called hUCN2; hUCN2 (NT Biotin)
T8 peptide (looked up): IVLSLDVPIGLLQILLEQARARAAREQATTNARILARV
As to the kind of experiment: ELISA, biotinylated hUCN2 on streptavidin plates. As for the experimental part: as §2

Test [9] has as its target T9, biotinylated CRH (human and mouse, not fully specified; biotinylated, position not stated).
T9 construct: also called Biotin-CRH; biotin-labeled CRH
T9 peptide: T1 peptide
The test can be described thus: Octet BLI, biotinylated CRH on SA sensor.

Test [10] addresses T10, human UCN1 peptide (human, UniProt P55089 83-122).
T10 peptide (looked up): T3 peptide (looked up)
As to the kind of experiment: cell-based or functional assay.

The target in test [11] is T8, human UCN2 peptide. The test can be described thus: ELISA on streptavidin-captured hUCN2 (NT biotin) and hUCN2 (CT biotin), mAb at 100 nM and 10 nM; axis labelled RLU, scale 0-4. As for the experimental part:
as §2

The record followed here is patent US20260042834A1 (HBM ALPHA THERAPEUTICS, published 2026).

Numbering of substitutions follows the chain as printed. Values joined by “and” are separate entries in the source; they are usually repeats but may differ in a detail not shown here. Equal values may be shown once. Bounds are passed on as bounds.

B1: PR006669 (antibody, human IgG1, kappa, V domains shown)
VH: EVQLVESGGGLVQPGGSLRLSCAASGFTFSDNWMSWVRQAPGKGLEWVANIKQDGSENYYVDSVKGRFTISRDNAKNSLYLQMNSLRAEDTAVYYCSRGLALWGWGQGTLVTVSS
VL: DIVMTHSPLSLPVTPGDPASISCRSSQSLLHSTGYNYLDWYLQKPGQSPQLLIYLGSNRASGVPDRFSGSGSGTDFTLKFIRVEAEDVGVYYCMQALQTPYTFGQGTKLEIKR
Turning to B1, in test [1], the “hCRHR1 Luciferase Reporter Assay IC50” value was determined as 7.38 nM and the “mCrhr1 Luciferase Reporter Assay IC50” value came out at 28.9 nM.

B2: PR006745 (antibody, human IgG1, kappa, V domains shown)
VH: B1 VH with G55A
VL: B1 VL
Consider B2, for which, in test [1], the “hCRHR1 Luciferase Reporter Assay IC50” value amounted to 13.2 nM and the “mCrhr1 Luciferase Reporter Assay IC50” value worked out at 76.2 nM.

B3: PR006746 (antibody, human IgG1, kappa, V domains shown)
VH: B1 VH with G55S
VL: B1 VL
Turning to B3, in test [1], the “hCRHR1 Luciferase Reporter Assay IC50” value was 10 nM and the “mCrhr1 Luciferase Reporter Assay IC50” value was found to be 46.4 nM.

B4: PR004290 (antibody, human IgG1, kappa, V domains shown)
VH: EVQLVESGGVLVQPGGSLRLSCAASGFTFSSYWMTWVRQAPGKGLEWVANIKQDGSEKYYVDSVKGRFTISRDNAKNSLFLQMNSLRAEDTAVYYCARTLIFDYWGQGTLVTVSS
VL: B1 VL with H6Q, D17E, Y37S, D39E, F80I, I81S, V90I, A96T, Y101I, K108R
notes: Series 1; human IgG1 wildtype Fc; also called Hybridoma Clone 28b3
With B4, the “CHO-CRE-hCRHR1 0.5 nM CRH IC50” value in test [2] was 5.41 nM and 3.49 nM. For the same molecule, the concentration for a half-maximal effect (EC50) was more than 1 nM in [3], 0.05 nM in test [4], 0.065 nM in test [5] and 1.59 nM in test [6].

B5: PR303394 (antibody, human IgG1, kappa, V domains shown)
VH: EVQLQQSGPELVKPGVSMKISCKASGYSFTDSTMNWVKQSHGKNLEWIGLIHPDNGGTIYNQKFKGKATLTVHKSSSTAYMELLSLTSEDSAVYYCANGFAYWGQGTLVTVSA
VL: DVVMTQTPLSLPVSLGDQASISCRSSQSLLHSNGNTYLHWYLQKPGQSPELLIYKVSNRFSGVPDRFSGSGSGTDFTLKISRVEAEDLGVYFCSQSTHVPLTFGAGTKLELKR
notes: also called analog of CTRND05
For B5, the binding result in test [7] and in test [8] was “no binding (tested: 100 nM)” throughout.

B6: PR302341-34 (antibody, human IgG1, kappa, V domains shown)
VH: QVQLVQSGAEVKKPGASVKVSCKASGYTFTDYFMKWVRQAPGQGLEWMGVINPNQGDIFYNQKFKGRVTMTVDKSISTAYMELSRLRSDDTAVYYCARGTDRALFAYWGQGTLVTVSS
VL: DVVMTQSPLSLPVTLGQPASISCRSGQSIVHSDANTYLEWYQQRPGQSPRLLIYKVSNRFSGVPDRFSGSGSGTDFTLKISRVEAEDLGVYYCFQGSHIPWTFGGGTKVEIKR
notes: Humanized, PTM-removed variant of PR302341
Molecule B6 showed a Kd in [9] of less than 0.001 nM. For the same molecule, the “CHO-CRE-hCRHR1 1 nM hUCH1 IC50” value in [10] was 21.9 nM and 30 nM. Moreover, in [2], the “CHO-CRE-hCRHR1 0.5 nM CRH IC50” value was found to be 0.616 nM. Also, the binding result in test [11] is given as “no binding (tested: 100 nM)”. Also, the EC50 was 0.03 nM and 0.022 nM in test [3]; 0.025 nM and 0.038 nM in test [4]; 0.027 nM in test [5]; 0.019 nM and 0.016 nM in test [6].

B7: PR302309-8 (antibody, human IgG1, kappa, V domains shown)
VH: QIQLVQSGSELKKPGASVKVSCKASGYTFTNYGMNWVRQAPGQGLEWMGWINTYTGEPIYTDDFKGRFVFSLDTSVSTAYLQISSLKAEDTAVYYCSRSTMITTGGVFAYWGQGTLVTVSS
VL: B6 VL with G26S, S28T, A34G, I99V
notes: Humanized variant of PR302309
With B7, the binding result in test [7] and in test [8] was “no binding (tested: 100 nM)” throughout.

B8: PR302341-48 (antibody, human IgG1, kappa, V domains shown)
VH: B6 VH with I76T, R85S, D89E
VL: B6 VL with S7T, L11S, S48P, S72A
notes: as for B6
For B8, the equilibrium dissociation constant (Kd) in [9] was less than 0.001 nM. For the same molecule, the koff in test [9] was less than 1e-07 s⁻¹. In [9], the on-rate constant (kon) worked out at 1.04e+06 M⁻¹ s⁻¹. For the same molecule, in [10], the “CHO-CRE-hCRHR1 1 nM hUCH1 IC50” value worked out at 30 nM. The “hUCN1 IC50/ CRH IC50” value in test [10] stood at 59 fold. Moreover, the “CHO-CRE-hCRHR1 0.5 nM CRH IC50” value in test [2] worked out at 0.507 nM. Also, the binding result in [11] is on record as “no binding (tested: 100 nM)”. Besides, the concentration giving a half-maximal response (EC50) amounted to 0.023 nM in test [3], 0.045 nM in [4], 0.028 nM in [5] and 0.017 nM in [6].

B9: PR302341-55 (antibody, human IgG1, kappa, V domains shown)
VH: B6 VH with G44R, Q55N, G56A, M70I, V72R, K74T, I76A, R85S, D89E
VL: B6 VL with A34G
notes: as for B6
Regarding B9, in test [9], the Kd is less than 0.001 nM, the koff is less than 1e-07 s⁻¹ and the kon is 1.2e+06 M⁻¹ s⁻¹. Besides, in test [10], the “CHO-CRE-hCRHR1 1 nM hUCH1 IC50” value is 28 nM and the “hUCN1 IC50/ CRH IC50” value was found to be 267 fold. Further, in [2], the “CHO-CRE-hCRHR1 0.5 nM CRH IC50” value was determined as 0.105 nM. Also, the binding result in test [11] is given as “no binding (tested: 100 nM)”. The EC50 in test [3] turned out to be 0.018 nM. This molecule had a concentration giving a half-maximal response (EC50) in test [4] of 0.022 nM. The EC50 in test [5] is 0.019 nM. The same molecule returned an EC50 in test [6] of 0.013 nM.

B10: PR302309-11 (antibody, human IgG1, kappa, V domains shown)
VH: B7 VH
VL: DIVMTQTPLSSPVTLGQPASISCRSSQTIVHSDGNTYLEWLQQRPGQPPRLLIYKVSNRFSGVPDRFSGSGAGTDFTLKISRVEAEDVGVYYCFQGSHVPWTFGGGTKVEIKR
notes: Humanized variant of PR302309
B10: the binding result in [7] and in test [8] was “no binding (tested: 100 nM)” throughout.

B11: PR302341-28 (antibody, human IgG1, kappa, V domains shown)
VH: B6 VH
VL: B6 VL with A34G
notes: as for B6
In [9], B11 showed a dissociation constant Kd of less than 0.001 nM, a koff of less than 1e-07 s⁻¹ and a kon of 2.63e+06 M⁻¹ s⁻¹. For the same molecule, in test [10], the “CHO-CRE-hCRHR1 1 nM hUCH1 IC50” value is 33 nM and the “hUCN1 IC50/ CRH IC50” value stood at 124 fold. Further, the “CHO-CRE-hCRHR1 0.5 nM CRH IC50” value in [2] worked out at 0.267 nM. Also, the binding result in test [11] is on record as “no binding (tested: 100 nM)”. Moreover, the EC50 in [3] is 0.032 nM. The molecule also registered a concentration giving a half-maximal response (EC50) in [4] of 0.052 nM. The molecule also had a concentration for a half-maximal effect (EC50) in [5] of 0.037 nM. This molecule came in with an EC50 in test [6] of 0.026 nM.

B12: PR005660 (antibody, human IgG1, kappa, V domains shown)
VH: B4 VH with D54E
VL: DIVMTQSPLSLPVTPGEPASISCRSSQSLLHSTGYQSLEWYLQKPGQSPQLLIYLGSNRASGVPDRFSGSGSGTDFTLKISRVEAEDVGIYYCMQTLQTPITFGQGTRLEIKR
notes: ΔPTM variant of PR004290
Take B12: the binding result in test [7] and in test [8] was “no binding (tested: 100 nM)” each time.

B13: PR302064 (antibody, human IgG1, kappa, V domains shown)
VH: EMQLVESGGGLVKPGGSLRLSCAASGFTFSNYWMNWVRQAPGKGLEWVAEIRLKSNNYATHYAESVKGRFTISRDDSKSTVYLQMNSLKTEDTAVYYCTVGTLVYWGQGTLVTVSS
VL: DIVLTQSPDSLAVSLGERATINCRASQSVSTSTYNYMHWFQQKPGQPPKLLIKFASNLESGVPDRFSGSGSGTDFTLTISSLQAEDTAVYYCQHSWEIPYTFGQGTKLEIKR
notes: Humanized variant of PR301777; human IgG1-WT-Fc
Regarding B13, the binding result in test [7] and in [8] was “no binding (tested: 100 nM)” throughout.
